Patent US20140314744A1 (NEOTOPE BIOSCIENCES, published 2014)

T1: mouse MCAM (full length, on transfected CHO cells) (mouse, UniProt Q8R2Y2 24-648)
T1 construct: whole, on cells; also called murine MCAM; mouse MCAM transfected CHO cells
T1 sequence (looked up): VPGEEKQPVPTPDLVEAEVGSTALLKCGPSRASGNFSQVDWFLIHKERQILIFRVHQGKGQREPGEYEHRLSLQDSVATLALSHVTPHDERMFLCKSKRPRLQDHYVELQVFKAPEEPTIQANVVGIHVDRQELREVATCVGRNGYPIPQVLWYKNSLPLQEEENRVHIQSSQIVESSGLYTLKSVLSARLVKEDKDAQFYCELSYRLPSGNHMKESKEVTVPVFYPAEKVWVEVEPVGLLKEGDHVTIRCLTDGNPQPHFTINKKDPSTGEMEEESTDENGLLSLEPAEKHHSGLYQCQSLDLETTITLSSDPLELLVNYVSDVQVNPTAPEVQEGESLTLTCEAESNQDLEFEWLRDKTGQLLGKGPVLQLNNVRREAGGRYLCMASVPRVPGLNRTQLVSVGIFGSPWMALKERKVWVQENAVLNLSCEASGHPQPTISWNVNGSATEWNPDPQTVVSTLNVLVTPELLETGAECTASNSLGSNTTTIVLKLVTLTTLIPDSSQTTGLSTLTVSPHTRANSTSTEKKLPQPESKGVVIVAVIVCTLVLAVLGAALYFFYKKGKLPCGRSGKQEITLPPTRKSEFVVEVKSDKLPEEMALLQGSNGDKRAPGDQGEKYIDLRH

T2: human MCAM (on transfected cells) (human, UniProt P43121 24-646)
T2 construct: Cells transfected with human MCAM; also called CD146; MUC18
T2 chain: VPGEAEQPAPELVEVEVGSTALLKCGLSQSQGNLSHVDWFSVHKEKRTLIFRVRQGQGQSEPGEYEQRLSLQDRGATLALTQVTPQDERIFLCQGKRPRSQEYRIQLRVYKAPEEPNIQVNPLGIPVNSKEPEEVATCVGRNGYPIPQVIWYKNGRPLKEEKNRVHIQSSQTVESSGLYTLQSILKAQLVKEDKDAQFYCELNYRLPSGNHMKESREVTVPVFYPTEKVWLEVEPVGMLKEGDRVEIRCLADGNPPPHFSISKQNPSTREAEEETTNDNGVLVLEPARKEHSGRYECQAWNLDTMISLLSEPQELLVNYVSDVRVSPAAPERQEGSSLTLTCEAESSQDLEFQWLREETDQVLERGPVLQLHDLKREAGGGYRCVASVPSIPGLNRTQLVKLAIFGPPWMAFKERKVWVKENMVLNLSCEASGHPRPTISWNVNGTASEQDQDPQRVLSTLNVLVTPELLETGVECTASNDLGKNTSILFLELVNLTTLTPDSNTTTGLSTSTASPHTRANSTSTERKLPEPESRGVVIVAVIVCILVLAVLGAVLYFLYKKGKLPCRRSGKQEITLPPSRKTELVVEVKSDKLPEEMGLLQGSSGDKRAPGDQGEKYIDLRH

T3: Murine MCAM domain 1 and 2 (Ig1-2A) with human IgG Fc tag (mouse, UniProt Q8R2Y2 24-244, limits assumed)
T3 construct: domain: domain 1 and 2 (Ig1-2A); also called MCAM Fc domains 1 and 2; not shown: human IgG Fc tag
T3 sequence (looked up): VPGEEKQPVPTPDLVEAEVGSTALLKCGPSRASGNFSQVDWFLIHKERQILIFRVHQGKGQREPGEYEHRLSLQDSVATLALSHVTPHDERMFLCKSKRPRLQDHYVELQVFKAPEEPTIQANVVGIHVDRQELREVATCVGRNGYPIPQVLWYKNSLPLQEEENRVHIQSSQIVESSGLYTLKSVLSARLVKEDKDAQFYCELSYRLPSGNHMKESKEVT

T4: Murine MCAM domain 1 (Ig1) with human IgG Fc tag (mouse, UniProt Q8R2Y2 24-131, limits assumed)
T4 construct: domain: domain 1 (Ig1); also called MCAM Fc domain 1; not shown: human IgG Fc tag
T4 sequence (looked up): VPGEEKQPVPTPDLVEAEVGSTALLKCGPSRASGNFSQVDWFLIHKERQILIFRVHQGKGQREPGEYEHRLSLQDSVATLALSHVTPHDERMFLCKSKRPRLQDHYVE

T5: Ig2 domain (mouse, UniProt Q8R2Y2)
T5 construct: immunoglobulin domain 2 alone; also called Murine MCAM domain 2 (Ig2)
T5 sequence (Fc fusion chain, looked up): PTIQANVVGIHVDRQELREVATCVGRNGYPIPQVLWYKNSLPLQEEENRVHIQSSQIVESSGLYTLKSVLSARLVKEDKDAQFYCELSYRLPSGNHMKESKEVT

T6: murine MCAM-Fc (extracellular domain of murine MCAM fused to human IgG) (mouse, UniProt Q8R2Y2 24-563)
T6 construct: extracellular domain; Produced in CHO cells; also called mouse MCAM-Fc protein; full length mouse MCAMhFc protein; not shown: human IgG (Fc) part
T6 sequence (looked up): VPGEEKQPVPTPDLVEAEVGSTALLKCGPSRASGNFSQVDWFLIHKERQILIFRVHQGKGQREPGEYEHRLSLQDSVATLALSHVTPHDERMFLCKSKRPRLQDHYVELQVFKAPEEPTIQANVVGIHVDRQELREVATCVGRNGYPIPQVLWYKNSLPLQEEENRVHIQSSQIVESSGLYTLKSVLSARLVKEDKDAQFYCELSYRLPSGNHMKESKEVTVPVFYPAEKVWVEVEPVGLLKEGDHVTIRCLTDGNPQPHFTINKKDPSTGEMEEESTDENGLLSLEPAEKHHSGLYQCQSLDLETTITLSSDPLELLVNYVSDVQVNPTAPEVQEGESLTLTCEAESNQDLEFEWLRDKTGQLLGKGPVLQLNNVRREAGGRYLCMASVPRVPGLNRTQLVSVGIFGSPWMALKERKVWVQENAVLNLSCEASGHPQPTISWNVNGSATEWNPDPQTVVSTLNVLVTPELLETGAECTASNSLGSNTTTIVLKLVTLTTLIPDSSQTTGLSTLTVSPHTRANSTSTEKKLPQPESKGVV

T7: Recombinant human laminin-α4 (R&D systems) (human, UniProt Q16363-2 826-1816)
T7 construct: also called laminin 4A chain; laminin A4 (α4) chain
T7 sequence (looked up): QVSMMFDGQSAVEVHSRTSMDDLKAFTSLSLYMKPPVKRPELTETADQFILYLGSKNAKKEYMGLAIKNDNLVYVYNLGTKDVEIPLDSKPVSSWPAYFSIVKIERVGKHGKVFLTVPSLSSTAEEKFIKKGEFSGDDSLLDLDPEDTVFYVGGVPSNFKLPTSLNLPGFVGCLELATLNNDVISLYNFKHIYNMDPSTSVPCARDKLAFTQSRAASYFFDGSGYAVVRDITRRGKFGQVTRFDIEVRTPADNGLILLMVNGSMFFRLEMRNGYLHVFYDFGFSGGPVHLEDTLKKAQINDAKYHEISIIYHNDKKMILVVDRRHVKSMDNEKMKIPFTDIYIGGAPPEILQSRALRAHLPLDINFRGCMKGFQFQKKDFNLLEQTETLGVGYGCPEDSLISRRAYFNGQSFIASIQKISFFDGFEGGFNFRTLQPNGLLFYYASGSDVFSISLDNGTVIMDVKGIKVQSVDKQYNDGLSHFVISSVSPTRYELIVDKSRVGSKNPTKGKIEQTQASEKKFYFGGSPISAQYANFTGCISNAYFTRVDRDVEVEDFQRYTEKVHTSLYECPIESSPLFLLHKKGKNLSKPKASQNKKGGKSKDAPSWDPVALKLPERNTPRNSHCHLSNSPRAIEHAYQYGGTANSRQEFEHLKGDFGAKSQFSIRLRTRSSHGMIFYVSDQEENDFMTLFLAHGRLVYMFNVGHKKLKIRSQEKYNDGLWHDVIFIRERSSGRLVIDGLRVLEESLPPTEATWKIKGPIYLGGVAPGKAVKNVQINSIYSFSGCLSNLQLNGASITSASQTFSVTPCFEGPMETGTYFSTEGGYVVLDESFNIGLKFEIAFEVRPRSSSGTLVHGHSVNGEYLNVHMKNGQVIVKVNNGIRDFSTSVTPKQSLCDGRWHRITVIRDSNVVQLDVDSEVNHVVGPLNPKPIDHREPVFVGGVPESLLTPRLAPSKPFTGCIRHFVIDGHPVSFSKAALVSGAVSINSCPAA

B1: clone 15 monoclonal antibody (rat anti-MCAM) (antibody, V domains shown)
VH: EVRLVESGGGLVQPGKSMKLSCVASGFKFSNYYMSWVRQAPAKGLEWVASISDGGGDTFCRDLVKGRFTISRDNAKSTLYLQMDSLRPEDTATYYCARRGAAMGGVMDAWGQGTSVTVSS
VL: DIVMTQSPSSLAVSAGETVSIHCKSSQSLLYSGTQKNYLAWFQQKPGQSPKLLIFWASTRQSGVPDRFIGRGSGTDFTLTISGVQAEDLAIYYCQQYYDTLTDTFGAGTKLELKR
notes: Rat monoclonal from a hybridoma; also called anti-MCAM antibody (clone 15)
B2: MCAM Fc domain 1 alone (Example 9) (Fc fusion)
chain: PRVAGVPGEAEQPAPELVEVEVGSTALLKCGLSQSQGNLSHVDWFSVHKEKRTLIFRVRQGQGQSEPGEYEQRLSLQDRGATLALTQVTPQDERIFLCQGKRPRSQEYRIQ
notes: not shown: Fc tag; not described

Experiments:
[1] = target: T1, mouse MCAM (full length, on transfected …); assay: flow cytometry on MCAM transfected cells mixed with CFSE-labelled untransfected cells
Method: MCAM-Fc was generated by fusing the extracellular domain of murine MCAM to human IgG and produced in CHO cells using standard techniques. Lou/M rats were immunized with 100 μg of MCAM-Fc protein in CFA (1:1 volume). Rats were boosted two times at two week intervals with MCAM-Fc protein in incomplete Freund's adjuvant (IFA) (1:1 volume). Hybridomas were generated from immunized rats using standard protocols and clones were selected by Clonepix. CHO cells were transfected with the full length murine MCAM gene and selected for stable expression using neomycin and standard techniques. Parental CHO cells (MCAM negative) were fluorescently labeled with carboxyfluorescein succinimidyl ester (CFSE) using standard techniques and mixed at a 1:1 ratio with unlabeled MCAM transfected CHO cells. Hybridoma supernatants were incubated with this mixture of cells for 30 minutes and binding of potential MCAM specific antibodies was detected with a fluorescently labeled anti-rat secondary antibody (Jackson Immuno) by flow cytometry.
(§1) Monoclonal antibodies against mouse MCAM were generated as described in Materials and Methods above. The specific binding between the monoclonal antibody and MCAM was confirmed by assessing the monoclonal antibody's ability to bind to cells transfected with either mouse or human MCAM. For this, untransfected cells were labeled with carboxyfluorescein succinimidyl ester (CFSE) and mixed with unlabeled MCAM transfected cells. Untransfected cells (in blue) could therefore be differentiated.

[2] = target: T2, human MCAM (on transfected cells); assay: flow cytometry on human MCAM transfected cells mixed with CFSE-labelled untransfected cells
Excerpt: as §1

[3] = target: T3, Murine MCAM domain 1 and 2 (Ig1-2A) …; assay: ForteBio Octet Red, domains on anti-human IgG Fc biosensors
Excerpt: (§2) The following protocol was used: ForteBio Domain Mapping Protocol. ForteBio anti-human IgG Fc biosensors were used to immobilize various mouse MCAMhFc domains including full length mouse MCAMhFc protein on to biosensor surface. These sensors were dipped into either clone 15 or 17 MCAM specific antibody for detection of binding to these domains or full length protein. After loading these samples into a black 96 well plate, the Octet Red was programmed as follows: 60 seconds for baseline #1; 180 seconds for loading various domains; 60 seconds for baseline #2; 180 seconds for association of antibody to domain; and 240 seconds for dissociation of antibody from domain.

[4] = target: T4, Murine MCAM domain 1 (Ig1) with human …; assay: as above
Excerpt: as §2

[5] = target: T5, Ig2 domain; assay: ForteBio Octet Red, anti-human IgG Fc biosensor loaded with the Ig2 domain hFc protein, dipped into clone 15 or SP2 media
Excerpt: as §2
(§3) For FIG. 10A-B, clones 15 and 17 were tested against the following protein samples (all have human IgG Fc tag): […]

[6] = target: T6, murine MCAM-Fc (extracellular domain of …); assay: ForteBio Octet Red, anti-human IgG Fc biosensor loaded with mouse MCAMhFc (5 ug/ml), dipped into clone 15 (5 ug/ml) or SP2 media
Excerpt: as §2, §3

[7] = target: T7, Recombinant human laminin-α4 (R&D …); assay: SPR (Biacore T200)
[8] = target: T8, Recombinant human laminin 511 (Biolamina) (human, UniProt O15230 36-3695; P07942 22-1786; P11047 34-1609); assay: SPR (Biacore T200)
T8 construct: Trimer α5β1γ1, bought; negative control

| binding result [1] | binding result [2] | binding result [3] | binding result [4] | binding result [5] | binding result [6] | binding result [7] | binding result [8] | Binder |
| --- | --- | --- | --- | --- | --- | --- | --- | --- |
| binds | no binding | binds | no binding (tested: 5 ug/ml) | no binding (tested: 5 ug/ml) | binds |  |  | B1 |
|  |  |  |  |  |  | no binding (tested: 5-175 nM) | no binding (tested: 5-175 nM) | B2 |
